The values that follow come from the RNAGym collection of RNA variant scans (doi:10.7554/elife.80360).

To fix the notation:
B1: CPEB3 Ribozyme (parent)
chain: GGGGGCCACAGCAGAAGCGUUCACGUCGCGGCCCCUGUCAGAUUCUGGUGAAUCUGCGAAUUCUGCUGU

The variants in the data set derive from B1. As to the kind of experiment: self-cleavage, relative activity (ratio to wild type); higher = more cleavage; co-transcriptional.
Turning to GGGGGCCACAUCAGAAGCGUUCAAGUCGCGGCCCCUGUCAGAUUCUGGUGAAUCUGCGAAUUCUGCUGU [G11U C24A], the self-cleavage is 0.308.
As for GGGGGCCACAUCAGAAGCGUUCACGUCGCGGACCCUGUCAGAUUCUGGUGAAUCUGCGAAUUCUGCUGU [G11U C32A], the figure is 0.773.
The value for GGGGGCCACACCAGAAGCGUACACGUCGCGGCCCCUGUCAGAUUCUGGUGAAUCUGCGAAUUCUGCUGU [G11C U21A] was 0.827; that for GGGGGCCACAACAGAAGCGUUCACGUCGCGGCCCCUGUCAGAUUCUGGUGAAUCUGCGAAUUCUGCUGC [G11A U69C] was 1.03; that for GGGGGCCACACGAGAAGCGUUCACGUCGCGGCCCCUGUCAGAUUCUGGUGAAUCUGCGAAUUCUGCUGU [G11C C12G] was 0.211.
For GGGGGCCACACUAGAAGCGUUCACGUCGCGGCCCCUGUCAGAUUCUGGUGAAUCUGCGAAUUCUGCUGU [G11C C12U], the self-cleavage stood at 0.452.
The value for GGGGGCCACACCAGAAGCGUUCCCGUCGCGGCCCCUGUCAGAUUCUGGUGAAUCUGCGAAUUCUGCUGU [G11C A23C] was 0.672.
The value for GGGGGCCACACCAGAAGCGUUCGCGUCGCGGCCCCUGUCAGAUUCUGGUGAAUCUGCGAAUUCUGCUGU [G11C A23G] was 0.626; that for GGGGGCCACACCUGAAGCGUUCACGUCGCGGCCCCUGUCAGAUUCUGGUGAAUCUGCGAAUUCUGCUGU [G11C A13U] was 0.209.
The value for GGGGGCCACACCGGAAGCGUUCACGUCGCGGCCCCUGUCAGAUUCUGGUGAAUCUGCGAAUUCUGCUGU [G11C A13G] was 0.558; that for GGGGGCCACACCCGAAGCGUUCACGUCGCGGCCCCUGUCAGAUUCUGGUGAAUCUGCGAAUUCUGCUGU [G11C A13C] was 0.175.
As to GGGGGCCACACCAGAAGCGUUCACGUCGCGGCCCCUGUCAGAUUCUGGUGAAGCUGCGAAUUCUGCUGU [G11C U53G], the self-cleavage amounted to 0.415.
The value for GGGGGCCACACCAGAAGCGUUCAGGUCGCGGCCCCUGUCAGAUUCUGGUGAAUCUGCGAAUUCUGCUGU [G11C C24G] was 0.114.
As for GGGGGCCACACCAGAAGCGUUCACGUCGCGGCCCCUGUCAGAUUGUGGUGAAUCUGCGAAUUCUGCUGU [G11C C45G], the figure is 0.767; as for GGGGGCCACACCAGAAGCGUUCACGUCGCUGCCCCUGUCAGAUUCUGGUGAAUCUGCGAAUUCUGCUGU [G11C G30U], 0.225.
The value for GGGGGCCACAUCAGAGGCGUUCACGUCGCGGCCCCUGUCAGAUUCUGGUGAAUCUGCGAAUUCUGCUGU [G11U A16G] was 0.572.
With GGGGGCCACACCAGAAGCGUUCACGUCGCGGCCCCUUUCAGAUUCUGGUGAAUCUGCGAAUUCUGCUGU [G11C G37U], the self-cleavage was 0.165.
As for GGGGGCCACACCAGAAGCGUUCACGUCGCGGCCCUUGUCAGAUUCUGGUGAAUCUGCGAAUUCUGCUGU [G11C C35U], the figure is 0.758; as for GGGGGCCACACCAGAAGCGUUCACGUCGCGGCCCAUGUCAGAUUCUGGUGAAUCUGCGAAUUCUGCUGU [G11C C35A], 0.205.
In the case of GGGGGCCACACCAGAAGCGUUCACGUCGCGGCCCCUGUCAGAUUCUGGUGAAUCUGCGAAUUCGGCUGU [G11C U64G], the self-cleavage was 0.435.
The value for GGGGGCCACACCAGAAGGGUUCACGUCGCGGCCCCUGUCAGAUUCUGGUGAAUCUGCGAAUUCUGCUGU [G11C C18G] was 0.0784; that for GGGGGCCACACCAGAAGCGUUCACGUCGCGGCCCCUGUCAGAUUCUGGUGAAUCUGCGACUUCUGCUGU [G11C A60C] was 0.299.
For GGGGGCCACACCAGAAGCGUUCACGUCGCGGCCCCUGUCAGAUUCUGGUGAAUCUGCGAAUUCUGGUGU [G11C C66G], the self-cleavage worked out at 0.943.
As for GGGGGCCACACCAGAAGCGUUCACGUCGCGGCCCCUGUCAGAUUCUGGUGAAUCUGCGAAUUCUGUUGU [G11C C66U], the figure is 0.939; as for GGGGGCCACAUCAGAAGCGUUCACGUCGCGGCCCCUGUCAGAUUCUGGUGAAUCUGCGCAUUCUGCUGU [G11U A59C], 0.35; as for GGGGGCCACAUCAGAAGCGUUCACGUCGCGGCCCCUGUCAGAUUCUGGUGAAUCUGCGUAUUCUGCUGU [G11U A59U], 0.395.
The value for GGGGGCCACACCAGAAACGUUCACGUCGCGGCCCCUGUCAGAUUCUGGUGAAUCUGCGAAUUCUGCUGU [G11C G17A] was 0.103; that for GGGGGCCACACCAGAAGCGUUCACGUCGCGGCCCCUGUCAGAUUCUGGUGAAUCUGCCAAUUCUGCUGU [G11C G58C] was 0.751; that for GGGGGCCACACCAGAAGCGUUCACGUCGCGGCCCCUGUCAGAUUCUGGUGAAUCUGCUAAUUCUGCUGU [G11C G58U] was 0.896.
As for GGGGGCCACACCAGAAGCGUUCACGUCGCGGCCCCUGCCAGAUUCUGGUGAAUCUGCGAAUUCUGCUGU [G11C U38C], the figure is 0.7; as for GGGGGCCACAACAGAAGCGUUCACGUCGCGGCCCCUGUCAGAUUCUGGUGAAUCUGCGAAUUCUGCAGU [G11A U67A], 0.934; as for GGGGGCCACACCAGGAGCGUUCACGUCGCGGCCCCUGUCAGAUUCUGGUGAAUCUGCGAAUUCUGCUGU [G11C A15G], 0.627.
In the case of GGGGGCCACACCAGAAGCGUUCACGUCGCGGCCCCUGUCAGAUGCUGGUGAAUCUGCGAAUUCUGCUGU [G11C U44G], the self-cleavage was determined as 0.662.
The value for GGGGGCCACACCAGAAGCGUUCACGUCGCGGCCCCUGUCAGAUCCUGGUGAAUCUGCGAAUUCUGCUGU [G11C U44C] was 0.459; that for GGGGGCCACAUCAGAAGCGUUCACGUCGCGGCCCCUGUCAGAUUCUGGUGACUCUGCGAAUUCUGCUGU [G11U A52C] was 0.761; that for GGGGGCCACAUCAGAAGCGUUCACGUCGCGGCCCCUGUCAGAUUCUGGUGAUUCUGCGAAUUCUGCUGU [G11U A52U] was 0.851.
The value for GGGGGCCACACCAGAAGCGUUCACGUCGCGGCCCCUGUCAGAUUCUGGUCAAUCUGCGAAUUCUGCUGU [G11C G50C] was 0.748; that for GGGGGCCACACCAGAAGCGUUCACGUCGCGGCCCCUGUCAGAUUCUGGUGAAUCUGAGAAUUCUGCUGU [G11C C57A] was 0.252.
The value for GGGGGCCACACCAGAAGCGUUCACGUCGCGGCCCCUGUCAGAUUCUGGUGAAUCUGCGGAUUCUGCUGU [G11C A59G] was 0.718.
